Experimental data as given in patent US8106168B2, “Metalloproteinase binding proteins” (Dyax Corp., priority 2005, dated 2012).

Assays:
[1] = system: Streptococcus cell wall (SCW)-induced arthritis, knee joints; assay: SCW-induced arthritis, joint swelling; assay type: in vivo, mouse; details: 2, 6 or 10 mg/kg IP at day 13, 16, 20 and 23; technecium uptake
Procedure: (§1) Antigen-induced arthritis, a model of rheumatoid arthritis, was induced by intraarticular injection of Streptococcus cell wall (SCW, […]) into the knee joints of C57B16 mice at day 0, 7, 14 and 21.
Mice were assorted into groups of six animals each and treated (by IP injection) with M0038-F01 (2, 6, or 10 mg/kg), a control isotype-matched antibody (control, 20 mg/ml), or etanercept (ENBREL®, 5 mg/ml) at day 13, 16, 20, and 23. Joint swelling (measured by technecium uptake) was measured at day 15, 16, 22, 23 and 28.

[2] = system: activation of pro-MMP-2 by MMP-14 in PMA-activated HT-1080 cells; assay: Gelatin zymogram, pro-MMP-2 activation in HT-1080 cells; assay type: cell-based, human; details: gelatin zymography of conditioned media after 3 days; antibodies 10 μg/ml, GM6001 10 μM
Procedure: The ability of anti-MMP-14 IgGs to inhibit the activation of pro-MMP-2 by MMP-14 was examined by gelatin zymogram experiments performed with PMA-activated HT-1080 cells. M0033-H07 and M0038-F01 were tested for their ability to inhibit MMP-14 in this assay. HT1080 cells (well-known to express MMP-14 and MMP-2) were seeded at 5×10^5 cells/well at Day 0. […] HT-1080 cells cultured in the presence of 20 ng/ml of PMA were used as a positive control.
After 3 days of incubation, conditioned media were collected and gelatinolytic activities were analyzed by gelatin zymography as described previously (Maquoi et al, J Biol Chem 2000; 275:11368-78). When HT-1080 cells are activated with a phorbol ester, pro-MMP-2 is activated into MMP-2 (lane 1).

[3] = target: T1, MMP14 (Mus musculus, UniProt P53690); assay: Immunohistochemical staining in acute phase SCW-induced arthritis; details: 7 days after first injection of SCW
T1 construct: from tissue; host or cells: knee joints of C57Bl6 mice with SCW-induced arthritis (synovial cells, chondrocytes, macrophages)
Procedure: as §1
MMP14 expression in acute phase SCW-induced arthritis (7 days after the first injection of SCW) was examined by immunohistochemical staining using M0038-F01.

[4] = system: MDA-MB-435 GFP tumors; assay: MDA-MB-435 GFP orthotopic breast tumor growth; assay type: in vivo, mouse; details: for Tumor Mass (±SD): excised primary tumor
Excerpt: Fragments of MDA-MB-435 GFP (MDA-MB-435 cells expressing green fluorescent protein) tumors were transplanted by surgical orthotopic implantation (SOI) into the right second mammary gland. Treatment was started on day 15 after SOI when the volume of primary tumors reached about 85 mm^3.
Mice were sacrificed at day 61 after the start of the treatment and tumors (primary and metastases) were identified by fluorescent imaging. Additionally, primary tumors were excised and weighed. […] However, M0038-F01 was not effective in reducing lymph node or lung metastases in this experiment.

[5] = system: BT747 breast cancer tumor fragments; assay: BT747 breast tumor growth; assay type: in vivo, mouse; details: small initial tumor size groups; M0038-F01 10, 1 or 0.1 mg/kg Q2d IP; trastuzumab 20 mg/kg
Procedure: Fragments (approximately 1 mm^3) of BT747 breast cancer tumor fragments were implanted into the flanks of female HRLN CB.17 SCID mice. […] All groups were dosed by intraperitoneal (IP) injection. Tumor volume was measured biweekly.

[6] = system: MDA-MB-231-GFP tumors; assay: MDA-MB-231-GFP orthotopic breast tumor growth and metastasis
Procedure: Human breast cancer cells MDA-MB-231 cells transfected with green fluorescent protein (MDA-MB-231-GFP) were inoculated into the mammary fat pad of female BALB/c nu/nu mice with Matrigel. Animals were monitored for tumor growth, and at week 4-5 post tumor cell inoculation, animals with tumors of 30-50 mm^3 were selected, randomized and divided into experimental groups. […] Tumor volume was measured weekly, starting at week 5. Additionally, tissue samples of lung, liver, and spleen were taken to assess metastasis.
Animals were inoculated with MDA-MB-231-GFP cells as described above, then selected and randomized, and divided into experimental groups of 8 animals each. […] Tumor volume was measured weekly, starting at week 5.
Tumor tissue samples were collected on day 35 post-treatment for immunohistochemical analysis. Paraffin-embedded tissue samples were sectioned, stained with CD31 (Santa Cruz Biotechnology Inc., Santa Cruz, Calif., USA), Ki-67 (DAKO, Carpinteria, Calif., USA), MAPK, FAK, phosphoMAPK or phosphoFAK antibodies, visualized with biotinylated secondary antibodies using a VECTASTAIN® ABC (Vector Laboratories Inc., Burlingame, Calif., USA), and lightly counterstained with haemotoxylin.

[7] = target: MMP-12 (Homo sapiens, UniProt P39900); assay: Cross-reactivity of anti-MMP-14 IgGs, enzymatic activity: MMP-12; assay type: biochemical; details: 1 μM anti-MMP-14 IgG
Procedure: (§2) The cross-reactivity of exemplary anti-MMP-14 IgGs and Fabs with other human MMPs and TACE (TNF-alpha converting enzyme) was examined. MMP and TACE enzymatic activity was monitored in the absence and presence of 1 μM anti-MMP-14 IgG antibody. Inhibition (Y) of activity ranged from approximately 50-80% of the reaction rate observed in the absence of antibody. “X” indicates no inhibition was observed. Cross-reactivity was not determined for MMP-17 because protein activity could not be detected.
(§3) For the studies summarized in Table 12, six anti-MMP-14 IgGs were selected for cross-reactivity testings: M0043-G02, M0040-A06, M0037-D01, M037-C09, M0038-F01, M0033-H07.

[8] = target: MMP-8 (Homo sapiens, UniProt P22894); assay: Cross-reactivity of anti-MMP-14 IgGs, enzymatic activity: MMP-8; assay type: biochemical; details: 1 μM anti-MMP-14 IgG
Procedure: as §2, §3

[9] = target: MMP-9 (Homo sapiens, UniProt P14780); assay: Cross-reactivity of anti-MMP-14 IgGs, enzymatic activity: MMP-9; assay type: biochemical; details: 1 μM anti-MMP-14 IgG
Procedure: as §2, §3

[10] = target: T2, MMP-2 (Homo sapiens, UniProt P08253); assay: Cross-reactivity of anti-MMP-14 IgGs, enzymatic activity: MMP-2; assay type: biochemical; details: 1 μM anti-MMP-14 IgG
T2 sequence (P08253 110-660): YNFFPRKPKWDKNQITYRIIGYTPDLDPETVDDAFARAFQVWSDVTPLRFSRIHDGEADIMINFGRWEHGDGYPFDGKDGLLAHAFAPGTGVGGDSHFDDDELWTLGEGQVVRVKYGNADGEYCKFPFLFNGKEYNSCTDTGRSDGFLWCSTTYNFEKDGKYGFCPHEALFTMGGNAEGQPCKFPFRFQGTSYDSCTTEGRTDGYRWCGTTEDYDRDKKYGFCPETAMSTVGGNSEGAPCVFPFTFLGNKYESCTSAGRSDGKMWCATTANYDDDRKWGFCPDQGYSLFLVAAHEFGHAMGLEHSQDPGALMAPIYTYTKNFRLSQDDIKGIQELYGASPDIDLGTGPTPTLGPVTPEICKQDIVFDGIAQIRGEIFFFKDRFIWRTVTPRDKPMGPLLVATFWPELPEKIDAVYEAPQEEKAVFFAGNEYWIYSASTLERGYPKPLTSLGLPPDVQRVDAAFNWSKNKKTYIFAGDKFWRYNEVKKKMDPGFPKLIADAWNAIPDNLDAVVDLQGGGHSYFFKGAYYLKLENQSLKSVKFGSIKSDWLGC
Procedure: as §2, §3

[11] = target: MMP-13 (Homo sapiens, UniProt P45452); assay: Cross-reactivity of anti-MMP-14 IgGs, enzymatic activity: MMP-13; assay type: biochemical; details: 1 μM anti-MMP-14 IgG
Procedure: as §2, §3

[12] = target: MMP-24 (Homo sapiens, UniProt Q9Y5R2); assay: Cross-reactivity of anti-MMP-14 IgGs, enzymatic activity: MMP-24; assay type: biochemical; details: 1 μM anti-MMP-14 IgG
Procedure: as §2, §3

[13] = immunostaining of tumor tissue, day 35

Chain of MMP-12 (P39900 106-470): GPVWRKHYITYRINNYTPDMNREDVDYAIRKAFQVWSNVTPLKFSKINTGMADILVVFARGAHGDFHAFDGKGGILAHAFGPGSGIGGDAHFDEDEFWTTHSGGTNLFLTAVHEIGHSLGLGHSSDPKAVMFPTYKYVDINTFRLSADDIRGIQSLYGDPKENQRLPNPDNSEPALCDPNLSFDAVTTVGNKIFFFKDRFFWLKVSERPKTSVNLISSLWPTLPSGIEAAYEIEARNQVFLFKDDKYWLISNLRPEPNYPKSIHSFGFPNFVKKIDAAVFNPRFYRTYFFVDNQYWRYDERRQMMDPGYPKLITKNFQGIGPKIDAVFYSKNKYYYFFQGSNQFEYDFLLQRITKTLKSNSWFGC
Chain of MMP-9 (P14780 94-707): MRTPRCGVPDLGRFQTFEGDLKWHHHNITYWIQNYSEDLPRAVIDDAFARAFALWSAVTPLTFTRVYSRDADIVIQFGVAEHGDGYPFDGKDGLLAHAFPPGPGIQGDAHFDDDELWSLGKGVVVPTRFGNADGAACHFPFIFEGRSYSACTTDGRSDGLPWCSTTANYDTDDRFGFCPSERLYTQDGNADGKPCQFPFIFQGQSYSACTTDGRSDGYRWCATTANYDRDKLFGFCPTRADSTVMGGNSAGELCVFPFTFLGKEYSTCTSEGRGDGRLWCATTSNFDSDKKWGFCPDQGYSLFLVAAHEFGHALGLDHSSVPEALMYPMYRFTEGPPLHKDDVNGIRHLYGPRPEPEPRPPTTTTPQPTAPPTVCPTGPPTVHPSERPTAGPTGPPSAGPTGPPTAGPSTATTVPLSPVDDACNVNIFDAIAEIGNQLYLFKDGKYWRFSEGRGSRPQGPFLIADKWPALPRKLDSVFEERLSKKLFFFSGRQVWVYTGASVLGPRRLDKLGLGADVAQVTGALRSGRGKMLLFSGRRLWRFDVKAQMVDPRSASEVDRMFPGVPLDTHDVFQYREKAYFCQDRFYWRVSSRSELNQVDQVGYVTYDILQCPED
Chain of MMP-24 (Q9Y5R2 156-645): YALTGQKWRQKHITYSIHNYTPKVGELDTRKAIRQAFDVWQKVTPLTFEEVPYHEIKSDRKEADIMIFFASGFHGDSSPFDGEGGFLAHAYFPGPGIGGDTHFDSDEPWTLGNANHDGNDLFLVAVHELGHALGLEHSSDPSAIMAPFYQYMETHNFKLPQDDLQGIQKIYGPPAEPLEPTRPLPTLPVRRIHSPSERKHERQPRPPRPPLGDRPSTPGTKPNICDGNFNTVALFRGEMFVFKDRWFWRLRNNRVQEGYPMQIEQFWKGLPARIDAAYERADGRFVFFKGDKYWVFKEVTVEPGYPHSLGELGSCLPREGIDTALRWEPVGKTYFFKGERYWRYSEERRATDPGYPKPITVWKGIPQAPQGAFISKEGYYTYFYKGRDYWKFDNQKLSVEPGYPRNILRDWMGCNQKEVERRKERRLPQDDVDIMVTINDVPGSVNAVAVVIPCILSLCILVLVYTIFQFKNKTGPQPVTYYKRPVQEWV
Chain of MMP-8 (P22894 101-467): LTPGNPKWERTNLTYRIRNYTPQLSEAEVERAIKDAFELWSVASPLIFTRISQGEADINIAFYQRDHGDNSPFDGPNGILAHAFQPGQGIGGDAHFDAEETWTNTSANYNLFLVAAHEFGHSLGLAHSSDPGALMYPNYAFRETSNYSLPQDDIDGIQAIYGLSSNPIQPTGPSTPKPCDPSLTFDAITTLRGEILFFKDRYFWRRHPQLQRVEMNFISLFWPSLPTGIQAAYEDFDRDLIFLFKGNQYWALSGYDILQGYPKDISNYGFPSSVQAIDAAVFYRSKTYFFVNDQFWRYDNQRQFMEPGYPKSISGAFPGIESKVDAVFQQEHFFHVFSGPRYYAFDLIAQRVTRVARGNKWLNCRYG

B1: M0038-F01: human antibody (Fab, IgG) that binds and inhibits MMP-14; HC SEQ ID NO: 156, LC SEQ ID NO: 157 (antibody, V domains shown)
VH: EVQLLESGGGLVQPGGSLRLSCAASGFTFSLYSMNWVRQAPGKGLEWVSSIYSSGGSTLYADSVKGRFTISRDNSKNTLYLQMNSLRAEDTAVYYCARGRAFDIWGQGTMVTVSS
VL: QDIQMTQSPSSLSAFVGDKVTITCRASQSVGTYLNWYQQKAGKAPELLIYATSNLRSGVPSRFSGSGSGTDFTLTINTLQPEDFATYYCQQSYSIPRFTFGPGTKVDIK
modifications: Synthetically generated peptide
joint swelling [1]: did not have an effect
pro-MMP-2 activation by MMP-14 [2]: completely inhibits
pro-MMP-9 expression [2]: No stimulation
immunohistochemical staining of joint tissue [3]: strongly stained synovial cells and chondrocytes, as well as macrophages in joint exudate
Tumor Mass (±SD) ([4]; 0.1 mg/kg Q2d IP, day 61): 1.54 ± 0.91
Tumor Mass (±SD) ([4]; 1 mg/kg Q2d IP, day 61, * p≦0.05 compared to Control): 0.86 ± 0.21*
Tumor Mass (±SD) ([4]; 10 mg/kg (F01 and A2 Q2d IP; taxotere QW×3 i.v.), day 61, * p≦0.05 compared to Control): 0.82 ± 0.35*
tumor volume ([4]; M0038-F01 1 or 10 mg/kg Q2d IP, taxotere 10 mg/kg QW×3 i.v.): reduction of tumor volume
lymph node or lung metastases ([4]; fluorescent imaging, day 61): not effective
tumor growth [5]: inhibition of tumor growth
metastases to spleen ([6]; M0038-F01 10 mg/kg Q2d IP, DOX 5 mg/kg weekly IP): reduced in DOX and M0038-F01 treated animals, but the difference was not statistically significant
lung and liver metastases ([6]; M0038-F01 10 mg/kg Q2d IP, DOX 5 mg/kg weekly IP, compared to controls): statistically significant reduction
tumor growth (tumor volume), dose-ranging experiment ([6]; M0038-F01 0.1, 1 or 10 mg/kg Q2d IP for 5 weeks, A2 10 mg/kg): reduced in all M0038-F01 treated animals, with the 10 mg/kg dose being most effective, followed by the 1 mg/kg and 0.1 mg/kg doses
tumor growth (tumor volume) ([6]; M0038-F01 or A2 10 mg/kg Q2d IP, DOX 5 mg/kg weekly IP, five weeks): substantially inhibited
CD31 and KI67 levels compared to vehicle and A2 controls [6, 13]: statistically significant (p<0.05) reductions
phospho-FAK level [6, 13]: 4±1.2 A.U.
phospho-MAP kinase level [6, 13]: 2.4±0.7 A.U.
total MAP kinase and FAK levels ([6]; immunostaining of tumor tissue, day 35, versus control tumors): essentially the same as in control tumors
Ki67 ([6]; immunostaining of tumor tissue, day 35 post-treatment, image analysis): 2.4 ± 1.2

B2: M0040-A06: human antibody (Fab, IgG) that binds and inhibits MMP-14; HC SEQ ID NO: 162, LC SEQ ID NO: 163 (antibody, V domains shown)
VH: EVQLLESGGGLVQPGGSLRLSCAASGFTFSYYGMYWVRQAPGKGLEWVSSISSSGGYTDYADSVKGRFTISRDNSKNTLYLQMNSLRAEDTAVYYCARRIKYYDIEGEGAFDIWGQGTMVTVSS
VL: QDIVMTQTPPSLPVNPGEPASISCRSSQSLLHRNGYNYLDWYLQKPGQSPQLLIHLGSYRASGVPDRFSGSGSGTDFTLKISRVEAEDVGVYYCMQPLQTPFTFGPGTKVDIK
modifications: Synthetically generated peptide
Cross reactivity: inhibition of MMP-12 activity [7]: Y (Inhibition (Y) of activity ranged from approximately 50-80% of the reaction rate observed in the absence of antibody)
Cross reactivity: inhibition of MMP-8 activity [8]: Y (Inhibition (Y) of activity ranged from approximately 50-80% of the reaction rate observed in the absence of antibody)
Cross reactivity: inhibition of MMP-9 activity [9]: Y (Inhibition (Y) of activity ranged from approximately 50-80% of the reaction rate observed in the absence of antibody)
Cross reactivity: inhibition of MMP-2 activity [10]: Y (Inhibition (Y) of activity ranged from approximately 50-80% of the reaction rate observed in the absence of antibody)
Cross reactivity: inhibition of MMP-13 activity [11]: Y (Inhibition (Y) of activity ranged from approximately 50-80% of the reaction rate observed in the absence of antibody)
Cross reactivity: inhibition of MMP-24 activity [12]: Y (Inhibition (Y) of activity ranged from approximately 50-80% of the reaction rate observed in the absence of antibody)

B3: M0043-G02: human antibody (Fab, IgG) that binds and inhibits MMP-14; HC SEQ ID NO: 166, LC SEQ ID NO: 167 (antibody, V domains shown)
VH: EVQLLESGGGLVQPGGSLRLSCAASGFTFSWYPMFWVRQAPGKGLEWVSGIYSSGGPTDYADSVKGRFTISRDNSKNTLYLQMNSLRAEDTAVYYCAKDTLGRYYDFWSGYSYGMDVWGQGTTVTVSS
VL: QDIQMTQSPGTLSLSPGERATLSCRASQSVSSSYLAWYQQKPGQAPRLLIYGASSRATGIPDRFSGSGSGTDFTLTISRLEPEDFAVYYCQSGVTFGGGTKVEIK
modifications: Synthetically generated peptide
Cross reactivity: inhibition of MMP-12 activity [7]: Y (Inhibition (Y) of activity ranged from approximately 50-80% of the reaction rate observed in the absence of antibody)
Cross reactivity: inhibition of MMP-9 activity [9]: Y (Inhibition (Y) of activity ranged from approximately 50-80% of the reaction rate observed in the absence of antibody)
Cross reactivity: inhibition of MMP-2 activity [10]: Y (Inhibition (Y) of activity ranged from approximately 50-80% of the reaction rate observed in the absence of antibody)
Cross reactivity: inhibition of MMP-13 activity [11]: Y (Inhibition (Y) of activity ranged from approximately 50-80% of the reaction rate observed in the absence of antibody)
Cross reactivity: inhibition of MMP-24 activity [12]: Y (Inhibition (Y) of activity ranged from approximately 50-80% of the reaction rate observed in the absence of antibody)
